From patent US6960343B2, “Toll/interleukin-1 receptor adapter protein (TIRAP)” (Yale University School of Medicine, priority 2001, dated 2005)

Columns and labels:
[1] = target: T1, CD4/TLR4 (constitutively active form of TLR4) (UniProt O00206+P06332); experiment: CD4/TLR4-mediated NF-κB activation, luciferase reporter, 293T cells; format: cell-based; details: 50 ng, 250 ng, 1.0 μg construct
T1 construct: CD4 (fusion partner of the chimera); expressed in transfected cells; host or cells: 293T cells
T1 sequence (P06332+O00206 with tags, fused parts or gaps): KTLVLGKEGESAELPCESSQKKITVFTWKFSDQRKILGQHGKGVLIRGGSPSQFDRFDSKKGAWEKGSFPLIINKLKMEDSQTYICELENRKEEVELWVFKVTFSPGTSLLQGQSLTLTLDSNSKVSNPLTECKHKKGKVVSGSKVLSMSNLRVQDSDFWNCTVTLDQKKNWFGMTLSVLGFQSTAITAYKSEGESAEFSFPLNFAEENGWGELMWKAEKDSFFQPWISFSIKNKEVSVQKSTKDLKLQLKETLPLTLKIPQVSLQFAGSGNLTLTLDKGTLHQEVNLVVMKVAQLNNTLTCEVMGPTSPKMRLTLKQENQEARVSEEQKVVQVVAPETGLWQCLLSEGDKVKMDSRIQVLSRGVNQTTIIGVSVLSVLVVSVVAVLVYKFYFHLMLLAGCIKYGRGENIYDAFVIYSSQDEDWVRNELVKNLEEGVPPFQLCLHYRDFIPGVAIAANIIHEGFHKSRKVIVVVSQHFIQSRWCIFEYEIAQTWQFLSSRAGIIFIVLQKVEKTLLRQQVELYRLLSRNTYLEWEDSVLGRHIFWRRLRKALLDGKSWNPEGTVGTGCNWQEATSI
Description: To determine whether TIRAP P125H functions as a dominant negative, 293T cells were transfected with 0.25 μg of vector alone (pcDNA3) or CD4/TLR4 (a vector expressing a constitutively active form of TLR4) with or without increasing concentrations (50 ng, 250 ng, 1.0 μg) of either TIRAP P125H or MyD88 DN (a vector expressing MyD88 containing a proline to histidine mutation at the same position as TIRAP P125H) and the NF-κB-dependent luciferase reporter gene.

TLR9 = target: T2, TLR9 (Homo sapiens, UniProt Q9NR96); experiment: NF-κB activation by CpG stimulation of TLR9-transfected 293T cells; format: cell-based; details: 100 ng, 250 ng construct, CpG 3 μM
T2 construct: TLR9 (encodes full length TLR9); expressed in transfected cells; host or cells: 293T cells
T2 sequence (Q9NR96 26-1032): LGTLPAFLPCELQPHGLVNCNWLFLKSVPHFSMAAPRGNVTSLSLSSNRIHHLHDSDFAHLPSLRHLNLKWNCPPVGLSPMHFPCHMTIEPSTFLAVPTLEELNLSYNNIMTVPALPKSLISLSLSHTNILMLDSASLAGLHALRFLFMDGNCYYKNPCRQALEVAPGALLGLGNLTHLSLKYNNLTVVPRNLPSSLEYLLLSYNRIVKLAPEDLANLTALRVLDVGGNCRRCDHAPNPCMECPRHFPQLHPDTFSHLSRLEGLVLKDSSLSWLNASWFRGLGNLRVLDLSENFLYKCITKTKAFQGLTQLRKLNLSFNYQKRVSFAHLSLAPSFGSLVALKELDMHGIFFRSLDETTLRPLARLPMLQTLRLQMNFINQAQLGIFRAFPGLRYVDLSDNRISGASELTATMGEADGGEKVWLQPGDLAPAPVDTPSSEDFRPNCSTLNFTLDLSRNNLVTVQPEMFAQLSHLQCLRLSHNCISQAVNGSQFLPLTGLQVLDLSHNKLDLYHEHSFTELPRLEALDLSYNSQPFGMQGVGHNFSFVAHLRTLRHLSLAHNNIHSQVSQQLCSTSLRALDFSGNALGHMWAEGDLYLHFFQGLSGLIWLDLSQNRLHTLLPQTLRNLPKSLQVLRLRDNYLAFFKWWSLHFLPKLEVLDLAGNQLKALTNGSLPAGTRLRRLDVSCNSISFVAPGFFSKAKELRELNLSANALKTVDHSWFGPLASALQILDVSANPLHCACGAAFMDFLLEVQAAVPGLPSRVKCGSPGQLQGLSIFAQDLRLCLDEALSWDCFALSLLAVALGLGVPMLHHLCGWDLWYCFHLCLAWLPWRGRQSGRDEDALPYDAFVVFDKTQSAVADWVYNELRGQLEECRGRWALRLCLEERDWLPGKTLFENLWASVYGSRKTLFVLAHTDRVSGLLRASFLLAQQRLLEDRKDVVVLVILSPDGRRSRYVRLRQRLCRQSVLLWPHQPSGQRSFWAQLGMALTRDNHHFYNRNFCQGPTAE
Description: To determine whether TIRAP inhibits NF-κB activation induced by CpG-stimulation of TLR9-transfected cells, 293T cells were transfected with vector alone (pcDNA3), TLR9 (50 ng), with or without increasing concentrations (100 ng, 250 ng) of either TIRAP P125H or MyD88 DN. At twenty-four h post transfection, CpG oligonucleotides were added at 3 μM final concentration to TLR9-transfected samples and incubated for 14 more hours before harvesting. […] Thus, TIRAP appears to function downstream of TLR4 but not IL-1R or TLR9, and is likely to be the adapter in the MyD88-independent pathway downstream of TLR4.

inhibition of NF-κB activation mediated by CD4/TLR4 [1]: strongly inhibited
inhibition of NF-κB activation induced by CpG-stimulation of TLR9-transfected cells (TLR9): did not inhibit
Substance: TIRAP P125H: vector encoding a mutant form of TIRAP containing a proline to histidine mutation at amino acid position 125
